Measured values reported in US8663642B2, “Anti-CD70 antibody-drug conjugates and their use for the treatment and prevention of cancer and immune disorders” (priority 2003, dated 2014).

Columns and labels:
Assay type in all cases: cell-based, human
[1] = system: CD70^+ CD8^+/Vβ17^+ T cells; experiment: In vitro deletion of M1 peptide-specific T cells (flow cytometry, viable counts)
Protocol: PBMCs from a normal HLA-A0201donor were stimulated with the M1 peptide for 5 days. 1F6 ADCs or control non-binding IgG (cIgG) ADCs were added to cells to a final concentration of 1 μg/ml. Total viable cell counts were conducted at 24, 48, and 76 hours post drug addition. Total numbers of CD8^+/Vβ17^+ for each culture condition are calculated (upper panel).
FIG. 19: Dose-response comparison of anti-CD70 ADCs on deletion of antigen-specific CD8^+/Vβ17^+ cells. PBMCs from a normal HLA-A0201donor were stimulated with the M1 peptide for 5 days. 1F6 ADCs or control non-binding IgG (cIgG) ADCs were given to cells to the specified final concentrations. The percentages of CD8^+/Vβ17^+ cells 4 days post ADC addition was determined by flow cytometry as in FIG. 17.
To examine CD70 expression on activated antigen-specific T cells, PBMCs from a normal donor expressing HLA-A0201 were stimulated with the M1 peptide. PBMCs were seeded at 2×10^6 cells/ml with 5 μg/ml of M1 peptide in AIMV medium supplemented with 5% human AB serum. IL-2 (Proleukin, Chiron) and IL-15 (R&D Systems, MN) were added to final concentrations of 20 IU/ml and 5 ng/ml, respectively, once every two days beginning on day 2 after culture initiation. The expansion of CD8^+/Vβ17^+ T cells and induction of CD70 on the CD8^+/Vβ17^+ was followed by three-color flow cytometry. Vβ17^+ T cells were identified by the anti-TCRVβ17 mAb clone E17.5F3 (Beckman Coulter, Miami, Fla.).
PBMCs from a normal donor expressing HLA-A0201 were stimulated with the M1 peptide as described in Example 11. On day 5, cells were harvested, washed, and re-seeded at 0.5-1×10^6 cells/ml (approximately 100,000 of CD8^+/Vβ17^+ T cells) in fresh AIMV medium supplemented with 5% human AB, 20 IU/ml of IL-2, and 5 ng/ml of IL-15. 1F6 or control non-binding IgG (cIgG) ADCs were added to some cultures to a final concentration of 1 μg/ml. Total viable cell counts were conducted 24, 48, and 76 hours after ADC addition. Two-color flow cytometry was conducted to determine the percentages of CD8^+/Vβ17^+ cells among the viable cells. The absolute number of CD8^+/Vβ17^+ T cells in each culture was then calculated. […] The effects of 1F6 ADCs on the CD8^+/Vβ17^− cells were also evaluated.
The potency of three 1F6 ADCs was then compared. HLA-A0201 PBMCs were stimulated with the M1 peptide and re-seeded as described for FIG. 18 with the various ADCs at the indicated concentrations (FIG. 19). The percent of CD8^+/Vβ17^+ T cells after a 96-hour incubation was determined.

CD70^− Jurkat cells = experiment: 3H-TdR proliferation assay, hematologic lines; conditions: at concentrations as high as 2 μg/ml
Protocol: (§1) FIG. 5: Effects of anti-CD70 ADCs on the proliferation of transformed hematologic cell lines. A subset of the CD70^+ cell lines shown in FIG. 4 and the CD70^− Jurkat cell line were tested for their sensitivity toward 1F6 ADCs. Graded doses of the 1F6-vcMMAE, 1F6-vcAFP, or the corresponding non-binding control IgG (IgG) ADCs were added to cells at the initiation of culture. Cells were exposed to the ADCs continuously for a total of 96 hours. Proliferation was determined by pulsing with ^3H-TdR during the last 16 hours of incubation. The upper panels show the response of the WSU-NHL and Jurkat lines. The lower panel summaries the responses by the tested cell lines to 1F6-vcMMAE and 1F6-vcAFP in form of IC50s.
(§2) A subset of the CD70^+ hematologic lines listed in FIG. 4 was tested for sensitivity to the 1F6 ADCs. These lines were seeded at 5,000 cells per well in 96-well plates in quadruplicates in a total of 200 μl of culture medium containing graded doses of the ADCs as indicated in the FIG. 5 and the accompanying figure legend. Proliferation assays were carried out for 96 hours. Tritiated thymidine (^3H-TdR) incorporation during the last 16 hours of incubation was used to assess DNA synthesis. The responses of a CD70^+ B lymphoma cell line WSU-NHL and the CD70^− Jurkat cells are shown in the upper panels of FIG. 5. […] Proliferation inhibitory effects were apparent when the ADCs were used at concentrations higher than 0.005 μg/ml. […] On the other hand, proliferation of the CD70^− Jurkat acute T leukemia cell line was not affected by either 1F6-vcMMAE or 1F6-vcAFP at concentrations as high as 2 μg/ml. […] The responses of other CD70^+ cell lines tested are summarized in the lower panel of FIG. 5. […] Moreover, EBV-LCLs are phenotypically very similar to activated normal B cells.

WSU-NHL cells = experiment: 3H-TdR proliferation assay, hematologic lines; conditions: 96 hours, 3H-TdR last 16 hours
Protocol: as §1, §2

B1: 1F6-vcAFP: anti-CD70 mAb 1F6 linked to auristatin phenylalanine phenylenediamine by the valine-citrulline (vc) dipeptide linker (conjugate)
VH: QIQLVQSGPEVKKPGETVKISCKASGYTFTNYGMNWVKQAPGKGLKWMGWINTYTGEPTYADAFKGRFAFSLETSASTAYLQINNLKNEDTATYFCARDYGDYGMDYWGQGTSVTVSS
VL: DIVLTQSPASLAVSLGQRATISCRASKSVSTSGYSFMHWYQQKPGQPPKLLIYLASNLESGVPARFSGSGSGTDFTLNIHPVEEEDAATYYCQHSREVPWTFGGGTKLEIKR
modifications: non-natural residues
notes: anti-CD70 mAb 1F6 linked to auristatin phenylalanine phenylenediamine by the valine-citrulline (vc) dipeptide linker
[1]; 1 μg/ml, 76 hours after ADC addition
  number of CD8^+/Vβ17^+ T cells: Virtually no expansion
[1]; 1 μg/ml, end of the experiment
  CD8^+/Vβ17^+ cells, of the control untreated culture: < 40%
[1]; 96-hour incubation
  inhibition of CD8^+/Vβ17^+ T cell expansion: dose-dependent inhibition
CD70^− Jurkat cells
  effect on proliferation of Jurkat cells: not affected
WSU-NHL cells
  effect on the proliferation of WSU-NHL cells: dose-dependent inhibitory effects
